Measurements: the supplement of paper PMC12636428

System: Saccharomyces cerevisiae
Experiment: transcriptional activation domain activity (GFP:mCherry ratio, weighted mean of sorted bins, harmonized to initial dataset scale) (arbitrary fluorescence ratio units); higher = stronger transcriptional activation
Details: beta-estradiol 1 µM; induction time 4 h
How it was run: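 Values are activation activity, found as the read-weighted mean of bin median fluorescence, averaged across barcodes and then mapped linearly onto the initial dataset scale. Barcoded protein tiles fused to an estradiol-inducible synthetic transcription factor were integrated at the URA3 locus of GFP-reporter yeast diploids. Cells were induced for 4 hours at 30 °C with 1 uM beta-estradiol in SC, sorted into 8 bins by GFP:mCherry ratio, and barcode-sequenced, with tiles under 50 reads discarded.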

| Sequence | transcriptional activation domain activity |
| --- | --- |
| LEEYYWKTLNFTTPMYGADTPGSIFPEGLNVWNVAKLPNILDHMETKVPGVND | 88300 |
| PAADKSDAPRKPVSISIGGGAKKAEEAKPEPAKAASEGPAPAGGVAAVKAAAA | 39300 |
| AAAGRRGPGKRKGSRTSPGTAGGGGGRGGRGGGGRGGGARGGGAGGEAAGGAT | 29900 |
| HSACDIYYDNICLRLRLEGDLESYSYTARIVVVVLQLERRPMRGVPFITLVFD | 29400 |
| MSSSPTTGTSQDVQNRTVFTSRRRTAVACTNCRRRKLRCIPARVEEPATGPCA | 35800 |
| QLECFGSTSLGWKSLKLVLRAHALCLLAAAVKEGLFEYSYVRLLADLCLSLEC | 56200 |
| LSLWSHTCRHYCSVIRCKHICMILCHIRANNSLIGMIGILLVLNCTILPSNRV | 69900 |
| LLHILCFLMNLILTTLTLFVLLRDHLQLSCNVYTGLFFSCHTVSVAFSGVILL | 66200 |
| PELIGFCCFSMRFFVFIDLLGTLILPATVVYLIYLIIVVATRASAFPQIAIIM | 59400 |
| AAPAPAKRTAAAAGLEEAAASGELSKSQKKKLNKKLKGENGEAAAAPVAAAPS | 30900 |
| YYGMYPQDISTLGVSPRTPTSRLIRSYMKTILSNPESRKIFYFLMLNMCYMLV | 58900 |
| KQYCVRPNSGRIEPGRDVEVQVLLQAMREDPPPDAKCRDKFLVQSVAVTADKE | 44900 |
| LWTCLLITLILPSPLFSSLFFPSPLFSFLLCLFFTFYLSFPSLFLSCPPPFAG | 51800 |
| SSCAPIPMVDFDINESNMVMGNYFDDFASFMDNVPIPNSVFSPSYQPLFAFLP | 114000 |
| QVCFLGLSFRCVIGIDQMRCRSGYCSFVSLLYTLGNLSGVFSGIFAYAFSHLN | 66500 |
| DNAQANAGGARGRRDDGAGTSKEDGEEEGAYEGDSEEDKKKRRKGRSKRRGGD | 48100 |
| FVYELWRHGGLGVYSFRLTELLVKVVLEAECKEIMDWWLEKQGYILHDLHRKA | 50300 |
| FDRLIPEWAHAWKPVEGIWMLWWIKHQIFFALGVLQLLNQYWFFLILRILVRT | 56300 |
| MKSVVFCFLPLFFFCHSSKANHSSTFISMPPFFSLFFFFFPFSHFPTLSVLFG | 50600 |
| NFGLMSGLYLYVCILGDSWCPSIDLIFNWMSYAYLWNVYIFLLEIIPVTLMVL | 72100 |
| SATIFSPFDTHLLEPVPSSSSESSAEVMFHGKQMKNFLIDINSFTNQQQQAQD | 38700 |

| Sequence | transcriptional activation domain activity |
| --- | --- |
| QSLNFDLQTNSYYSNARGSDPSSYAIEGEYKTLATDDLGNILNLNYGETNEVI | 80000 |
| DLLFNVAAFVFVGAWTPFNQFSDPALSLSVWRLIVIAILVLLLRRLPAIIALY | 27800 |
| FVLYFFFFFFLFFFFASGLVFFIRLFFFCAVFSASPYSCCCYYFNCAYPIYVL | 55700 |
| IAQRLEILIYSHIVCIPLIASFSCLSWIFWMEYYFAWWFDSVITIRDINWHML | 36500 |
| FLSTFFIIPLDVMCRKAVLCCNKHFLPFLMVSMGPRFHSPHFSLNTFCHRLFF | 47300 |
| QRGVGTGVLKVGVDGGGHDEERIRWEAEMVGRERNWVLKKFLGQAISSQLDHA | 44800 |
| SSRRTKKSRRRRRGSSSSSSEAPSRKQRKAAASSSDEEQDRRARRKGKGKGRV | 30800 |
| MCMYFFTFFFFTFLFFFTFFVFFFFVSMEYLPTLLALIYIYYMSLPTSAQCSN | 35900 |
| IHCLDSLFLLYMLTIFYLLWYSSLIFPLWCMISLYYFIVLSSTSLLGLSFISL | 71500 |
| ASSVRIIAIKYFLTIHRWLPIVFKRGFFSSLLNPVAQRQTELGLLILCMKLCC | 48800 |
| NSSNNNNNNNIISNRKQASKEKRKIPRHIQTIDEKLINDSNYLAFLKFDDLEN | 83500 |
| GGLSELKDSLDDSQVQYAYARVEYANDSESTRVKFVLVIWIGESTKVMRKARV | 46700 |
| FSFFFFLFSLFLSFPSFLLPSFLLLFLSFYFSPSYLLLCLFSLIFYKLWPLFL | 25500 |
| MNQTSRFFSPFFSPFFSPFFSPFFLLFFLFSLFLSFPSFLLPCFLLLFLSFYF | 48800 |
| SSLMQYTLGATIGFVQSLEVRTQVLHLLVKLFQSLPQPDHFSIAQCYVYLNAP | 57200 |
| HSSIEWLMGWPAGLKLNKELALFLGDLFLWVIEYWSSCISALQPLLPHMVWFI | 39900 |
| SSQTPVLLWIIHFILPNLCILLYFTLQLIYLLRHHKSKWLIGDLVHSYCFYFI | 81000 |
| RAMYAPGFVELTLSYGTGGVTLYARYRSMIDALLKRPHATAFIFAGGYLSWLA | 52600 |
| IRGMCPEKPQIREIVYLLRGLIVNRILLMTLKKRWNVQYGLHSTRDPIAVPFH | 53200 |
| ADASSSRPQQSKGDKGRSRAPGADRKQESSSSSARASGTGGNNTNGGSSSNNN | 34100 |
| KRSRKHSSREDVGEEGEDRRSEHRERKKEKEREKDKEKDKDRSRSRHKRSRSD | 53600 |

| Sequence | transcriptional activation domain activity |
| --- | --- |
| ERKRERREKKEKEREREQREEREKSKERSGKKNGKDSEKRRERRGEKGSEERR | 32800 |
| FYMQLCVNIFLASGFIYILYCAWGAIISDVDIEASKHMSEVLVDIALCAKQYN | 22900 |
| DLFVSLMANSLTKLGFVPGATVDMKKLTIDIVELIFRWERRRMTGSPSIKPAD | 45200 |
| EKSQNNSNVINETIDHTDIHAHHADAHDDSFIESEEWLSKFIMDSQIDNDLKL | 139000 |
| MALPKDRDEEKEDEKDNAPKKGKRGPRKRVSQACDRCRTRKDKCDGKKPSCST | 20800 |
| MREAERAREEQEQERRRVEKVREREREREQERLERERLKAERERAAAAAVVAA | 40100 |
| IPIKYNTAIKRHQHSTELPSSVKCGFCNDNTTCVCKELETDHRKSDDGVATEQ | 39200 |
| SLRLLLTVLAGYPIAIVYRLIFLNKTSTIIGASARNWFCLVAGLSLSYYFNSF | 70800 |
| MRTLLMCHANRGIGFFWSGVFLWKVNILAGNGGYSSMCAYVNWLRLTWFSFVA | 40900 |
| EVRELHLIDRTLDELRTVQLTLTMLHLICAPKPVFHLLRSVVLQCAEPKGLLT | 46300 |
| PLVLPVTAFYFYMDSFLKKYLLLYVFITKYESGGMFWRVVFNRFLFLTLLGNI | 60500 |
| KQYCVRPNSGRIEPGKDVEVQVLLQAMKEDPPLDAKCRDKFLVQSVAVTADKE | 24900 |
| MMYDSLSSLFVSTLFFSLYEFLCLSCPLCFNYPFQVGFCTLFLFFHPLFAFMQ | 34500 |
| YCGSLGCMILVAGIKLLRLLKHHLTVQRALRSNIGKIKAGMLKVKIIMIVGCV | 66400 |
| FDQYLFESISGLILRVQFIGGALPDSISIFEPTLFPPFTEILQGDIDQYIPYV | 51300 |
| ATWWHVFGTRVFKPVPTYVGEFQTWLQAFIHLSWDWRLSTHMWFRYNFHMWTI | 68900 |
| YRTSQDLVGLSTVLEQYFNIGGLTGLLIIGDLIHCGLLPMPSIITWTRLIAHV | 68800 |
| PFLFKITVLYVLEVIDGILDVSRFFPAVQLELCCLMFLWCCCGMVLLWFCLTR | 58800 |
| GHERERGSGREKRGGERDATGRRERDRESGRESRESRESSRRERGSRDEGRRD | 39800 |
| NASVTREVPQFDTSANQMLSDIWSWIYYSEEFLAIPPSMVEGYDFSWQGLLGI | 120000 |
| KKEEEGEESEPEKLPKSTKRGRKKVEEEVKAEGEEEEEEAPVAKKQKPAANGS | < 6570 |

| Sequence | transcriptional activation domain activity |
| --- | --- |
| MLFFHQDTVVGQLFTRYTALIVLIFKSSSVLVFVLFLFFFFFFWPIRILVSFI | 37100 |
| IIYVPQARLMNFFNALTTQSFLYFWAVCLMRLHIAAFLPNLHNGKPYLITVYT | 47500 |
| MYLQWASCPLLICVSCFYTSLIYFAIISMSSMILTLVCLDRSMCWYSGWIFSS | 46000 |
| AAPVVAKKDDKKDKKKEEKKGEKEEKKPADEKKGGDKPKKEKKKAEKKPAAAP | 22200 |
| TVWLILNDQTLGYALGSFLCENSLLLSQRINEFFDTVLVAWMQWVLRWLDSWP | 40400 |
| LLRAYGRCLAPFPELVTQAYTWFRSWGTSEFRPLTVALLLVTYMQRSPEIKAP | 70700 |
| FMHLSRPEKLLVLKVFADLVDYARKSIDSCLSSPTVNWSFNNLLWNYCSMLLQ | 67000 |
| MLLLLYLILYLMMMLFAVCALISIYLCIYTLPLLSFPFFLALFYFILFLYVYL | 45200 |
| SFLEGAQHVVLGPGNFQWRGTKCKSFDAFIFNFIRVPRLEYWKLIRRSNCYRY | 52500 |
| NRPGQKSIQVLNQYIGIDIGKCYLCGRLCVNLSYVCWSSPQLLYNCRMVMITR | 41000 |
| MMLLSVRLCIVFFSFMAACFGIPYTPSILFASLFASALGLHILRIFFLVIVHF | 51300 |
| ACSCLSLITIFVGSGVVFQWFVSLIGSVLFQSWILILLLHFRFRYCWRKQGRP | 49200 |
| MFMGTLLLVFLHYDWAFFLDCCLWCFVISFCFCSVKFCLLVGCCILVLCNVAR | 70200 |
| LMLCAGHGILIALVEQSGIDIKPILVFCLITYTLCQIGMCYSCYLYDFILLFF | 50100 |
| NEGCKIITVFNGIFGIVYSFAPMCYFCLCIRVFFFALYKRHWYYHALLSLFWL | 70700 |
| HTRSLRYGKLRNGTLVRVPPTLIVRLKSHFHSLPCGVDLVLGLNGYIWVCMHI | 52700 |
| HSTLLYCHLLLLPFLSSCWALFFLFPLSFGSLFFLFFFFLFLFGAFSFFLSSL | 39600 |
| EAGAEEAAAGAGGRQEAASVEEAAREAARRRQQAEAGRGRRRRQPAGAEEAAE | 33300 |
| MYFCLDKLRRLACFLSLFFVSFFLFLCLTLFFALLFIISLSLLMYRCVLISLC | 14000 |
| GRKPAAKPTPRNSSTTARGRKAKSEPESEDDKPLAKKGGAAATKQTKKPAVKK | 22300 |
